We go through 30 sequences from the supplement of paper PMC9170038.

The subject of this series is MS2 coat protein. Put plainly: apparent KD of MS2 coat protein; designed switch direction (-1 OFF switch, 1 ON switch): -1; higher = weaker reporter binding. The procedure, abridged:
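Apparent KD, taken as the median over clusters for each design, was obtained by curve-fitting normalised cluster fluorescence. Designed RNA switches had been transcribed on Illumina chips by stalled E. coli RNA polymerase and titrated with SNAP-549-labelled MS2 coat protein, doubling from 0.7 or 1.5 nM to 3 µM.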

The mark [1] stands for this setting: Eterna round: R95, input ligand: FMN 200 uM.
[2] abbreviates: Eterna round: R95, input ligand: microRNA oligo, concentration not stated.
[3] abbreviates: Eterna round: R95, input ligand: none.
Setting [4] is: input ligand: microRNA oligo, concentration not stated.

As for “AGGUGUAGAGGAUAUUGAGUUCUUUACAUGAGGAUCACCCAUGUCCUGGGCACCCAGGACCAAGAAGGCUACACCA [Omei Ex5 D31] (Eterna round: R97, puzzle: Exclusion 5)”, the “apparent KD of MS2 coat protein” value runs as follows: (input ligand: FMN 200 uM) 38.4 nM; (input ligand: none) 72.6 nM.

As to “AGUAACCGUCACGAAAGUGAUGGUUACACAAGCAAAUGUACAUGAGGAUCACCCAUGUCCUCAAUUGCUCGUCUUAU [Sensor 3 - 50] (puzzle: Sensor v3, turn-off variant 2)”, the “apparent KD of MS2 coat protein” value was 106 nM under setting [1], 165 nM under setting [2] and 137 nM under setting [3].

Take “AGUAACUAUCACGAAAGUGAUAGUUACAAAACAAGUGAAACAUGAGGAUCACCCAUGUCCUCAUUUGCUCGUCUUAU [Sensor 3 - 2] (puzzle: Sensor v3, turn-off variant 2)”: the “apparent KD of MS2 coat protein” value runs as follows: under setting [1], 118 nM; under setting [2], 257 nM; under setting [3], 189 nM.

Consider “AGUAACUAUCACGAAAGUGAUAGUUACAAACAAGUGGAAACAUGAGGAUCACCCAUGUCCUCAUUUGCUCGUCUUAU [Sensor 3 - 6] (puzzle: Sensor v3, turn-off variant 2)”, for which the “apparent KD of MS2 coat protein” value is, setting by setting: under setting [1], 574 nM; under setting [2], 556 nM; under setting [3], 503 nM.

With “AGUAACUAUCACGAAAGUGAUAGUUACAACAAGUGAUAAACAUGAGGAUCACCCAUGUCCUCAUUUGCUCGUCUUAU [Sensor 3 - 9] (puzzle: Sensor v3, turn-off variant 2)”, the “apparent KD of MS2 coat protein” value by setting is: under setting [1], 256 nM; under setting [2], 283 nM; under setting [3], 326 nM.

Consider “AGUAACUAUCACGAAAGUGAUAGUUACAAUAGCAGUGAAACAUGAGGAUCACCCAUGUCCUCAUUUGCUCGUCUUAU [Sensor 3 - 23] (puzzle: Sensor v3, turn-off variant 2)”, for which the “apparent KD of MS2 coat protein” value was determined as 49.6 nM under setting [1], 566 nM under setting [2] and 61.2 nM under setting [3].

With “AGUAACUAUCACGAAAGUGAUAGUUACGCAAGCAGUGAAACAUGAGGAUCACCCAUGUCCUCAUUUGCUCGUCUUAU [Sensor 3 - 26] (puzzle: Sensor v3, turn-off variant 2)”, the “apparent KD of MS2 coat protein” value reads like this: under setting [1], 53.9 nM; under setting [2], 435 nM; under setting [3], 48.6 nM.

On to “AGUACUAACACGAGAGUGUUAGUACUAUAAGCUUGUGUUACAUGAGGAUCACCCAUGUCCUCAUAAGCUCGUCUUAU [Mat - Sensor v3 - Turn-off var 2 - D79] (puzzle: Sensor v3, turn-off variant 2)”, for which the “apparent KD of MS2 coat protein” value stood at 124 nM under setting [1], 40.5 nM under setting [2] and 116 nM under setting [3].

In the case of “AGUACUAACACGUGAGUGUUAGUACAAUAAGCUUGUGAAACAUGAGGAUCACCCAUGUCCUCAUAAGCUCGUCUUAU [salish99_TOv2_r3_061] (Eterna round: R96, puzzle: Sensor v3, turn-off variant 2)”, the “apparent KD of MS2 coat protein” value is, setting by setting: (input ligand: FMN 200 uM) 16.5 nM; under setting [4], 496 nM; (input ligand: none) 18.5 nM.

“AGUACUAACACGUGAGUGUUAGUACAAUAAGCUUGUGAAACAUGAGGAUCACCCAUGUCCUCAUAAGCUCGUCUUAU [salish99_TOv2_r3_061] (puzzle: Sensor v3, turn-off variant 2)”: the “apparent KD of MS2 coat protein” value by setting is: under setting [1], 17.4 nM; under setting [2], 1070 nM; under setting [3], 15.6 nM.

As to “AGUAGAUCUACGCUUGCGUGGAUCUGCAAUGCAGGUGUUACAUGAGGAUCACCCAUGUCCUCGUUUGCUCGUCUUAG [JL turnoff v2 99.11] (puzzle: Sensor v3, turn-off variant 2)”, the “apparent KD of MS2 coat protein” value was 145 nM under setting [1], 508 nM under setting [2] and 133 nM under setting [3].

On to “AGUAGAUCUACGCUUGCGUGGAUCUGCGAGGCAGGUGUAACAUGAGGAUCACCCAUGUCCUCAUUUGUUCGUCUUAU [JL turnoff v2 99.19] (puzzle: Sensor v3, turn-off variant 2)”, for which the “apparent KD of MS2 coat protein” value is, setting by setting: under setting [1], 379 nM; under setting [2], 377 nM; under setting [3], 477 nM.

As for “AGUAGGAGAGGAUAUACAUGAAGUCGAAAGACUUCGACUCAACAUGAGGAUCACCCAUGUAGAAGGCUCCUACA [Omei Ex2 BD A7] (Eterna round: R97, puzzle: Exclusion 2)”, the “apparent KD of MS2 coat protein” value is, setting by setting: (input ligand: FMN 200 uM) 126 nM; (input ligand: none) 47.3 nM.

With “AGUAGGUCUACCUUGGUGGAUCUGCAUAAUGCAAGUGUUACAUGAGGAUCACCCAUGUCCUCAUUUGCUCGUCUUAU [JL turnoff v2 99.22] (puzzle: Sensor v3, turn-off variant 2)”, the “apparent KD of MS2 coat protein” value reads like this: under setting [1], 39.4 nM; under setting [2], 105 nM; under setting [3], 43.5 nM.

“AGUAGUAGUAUCCGUUCUUACAUGAGGAUCACCCAUGUUUCUAGACGUGCACGCGAUGCUCGUCAGACUACCAGAUG [salish99_TOv1_r3_054] (puzzle: Sensor v3, turn-off variant 1)”: the “apparent KD of MS2 coat protein” value runs as follows: under setting [1], 61.2 nM; under setting [2], 72.3 nM; under setting [3], 68.9 nM.

As to “AGUCGUAGACAGGAUAUGCGGCUAAUAAAUAAAGCAGAAGGGUCUACUUGAGGAUCACCCAAGUGGGCGGUCAA [jl-ex6-4.21 ViennaUCT mod] (Eterna round: R97, puzzle: Exclusion 6)”, the “apparent KD of MS2 coat protein” value (input ligand: FMN 200 uM) came out at 186 nM and the “apparent KD of MS2 coat protein” value (input ligand: none) was 51.8 nM.

Take “AGUGCGUAUGUGAGGAUAUGCUGGUCCUUGGCUCGGCAGAAGGCACAUGAGGAUCACCCAUGUGGUGUCGUACG [salish99_Bmod_ex4_065] (puzzle: Brourd's mod of Exclusion 4)”: the “apparent KD of MS2 coat protein” value under setting [2] stood at 48.8 nM.

As for “AGUGUGUUAGGAUAUCGGAUAUGCUGGAGGAGGUGGAGUUACGAGAAGGAACAUGAGGAUCACCCAUGUAGGAC [JR_Exclu4_Sub049] (puzzle: Exclusion 4)”, the “apparent KD of MS2 coat protein” value under setting [2] stood at 25.7 nM.

Regarding “AGUUAGAUAGGAUAUGCCCGAGAUAACAUGAGGAUCACCCAUGUGACCGAAUCUAUUCUAGCAGAAGGGUUUAUGA [Mod of ViennaUCT 19 - Jieux - Exclusion 5] (Eterna round: R97, puzzle: Exclusion 5)”, the “apparent KD of MS2 coat protein” value amounted to 40.2 nM (input ligand: FMN 200 uM) and 95 nM (input ligand: none).

“AGUUAUGUAGGAUAUGCACGUGACAACUUGAGGAUCACCCAAGUGAUUGCAGGCUGGGCGGCAGAAGGGCAGUUGU [Diedbi] (Eterna round: R97, puzzle: Exclusion 5)”: the “apparent KD of MS2 coat protein” value came out at 153 nM (input ligand: FMN 200 uM) and 104 nM (input ligand: none).

As for “AGUUAUUCAGGAUAUGGUGUGUUAUACAUGAGGAUCACCCAUGUGGGUCCUGGUUUGGCCUCAGAAGGGAAUGUUA [salish99_ex5_r4_123] (Eterna round: R97, puzzle: Exclusion 5)”, the “apparent KD of MS2 coat protein” value is, setting by setting: (input ligand: FMN 200 uM) 507 nM; (input ligand: none) 600 nM.

As to “AGUUGGCGAGGAUAUACAUGAGGAUCACCCAUGUGAAAGAGAAGAGUGAGGAAGAAAAGUAGAAGGCGCUGACA [Mat - Exclusion 3 - Mod of Salish D39] (puzzle: Exclusion 3)”, the “apparent KD of MS2 coat protein” value runs as follows: under setting [1], 135 nM; under setting [2], 69.3 nM; under setting [3], 75.2 nM.

For “AGUUUUAAUGAGGAUAUCGUAUUGGAUAUAGUGCGAGAAGGCAUUACAUGAGGAUCACCCAUGUUUUGUUGGGA [JR_Ex6_Sub008] (Eterna round: R97, puzzle: Exclusion 6)”, the “apparent KD of MS2 coat protein” value (input ligand: FMN 200 uM) is 58.1 nM and the “apparent KD of MS2 coat protein” value (input ligand: none) was 24.5 nM.

Regarding “AUAAGCUUUGAGAUCCUUAACAUGAGGAUCACCCAUGUUCGUCUUAUGAUGGUCUGAUCCCUGAGGAUCGGACCGUG [Mat - Sensor v3 - turn-off var 1 - JL Mod - D2] (puzzle: Sensor v3, turn-off variant 1)”, the “apparent KD of MS2 coat protein” value reads like this: under setting [1], 277 nM; under setting [2], 5.74 nM; under setting [3], 380 nM.

Regarding “AUAAGGGCAGGAUAUGCAGAAAAGAUUGGCGUGGUCCUGACACAUGAGGAUCACCCAUGUAGAAGGGCCUAGCC [Maquzaar] (Eterna round: R97, puzzle: Exclusion 2)”, the “apparent KD of MS2 coat protein” value is, setting by setting: (input ligand: FMN 200 uM) 13.5 nM; (input ligand: none) 14.8 nM.

Turning to “AUAAUACAUGUAGGAUAUCUGCACGUUUAGUGCAGAGAAGGACAUGAGGAUCACCCAUGUAAUUAAGAUCAAUUAUUAAAUUAU [ENG1/3-D2] (Eterna round: R96, puzzle: Exclusion NG 1)”, the “apparent KD of MS2 coat protein” value amounted to 293 nM (input ligand: FMN 200 uM), 54.7 nM under setting [4] and 66.2 nM (input ligand: none).

Take “AUAAUACAUGUAGGAUAUGCGUGGCGAAGCUAUGCAGAAGGACAUGAGGAUCACCCAUGUCUUAGCGUCUGCGUACAGAUGCUA [JL eng1 1.35 mod 2] (Eterna round: R96, puzzle: Exclusion NG 1)”: the “apparent KD of MS2 coat protein” value by setting is: (input ligand: FMN 200 uM) 27.9 nM; under setting [4], 12.1 nM; (input ligand: none) 16.4 nM.

With “AUAAUGUAAGGAUAUCAGUCGACUAGCUGCGGCUAGUCGACUGAGAAGGUACAUGAGGAUCACCCAUGUGAAUA [E4/16-A3] (Eterna round: R97, puzzle: Exclusion 4)”, the “apparent KD of MS2 coat protein” value is, setting by setting: (input ligand: FMN 200 uM) 224 nM; (input ligand: none) 41.7 nM.

Turning to “AUAAUGUAAGGAUAUCAGUCGUUAAUAAUUAAUUAAUCGACUGAGAAGGUACAUGAGGAUCACCCAUGUGAUCA [E4/8-B2] (Eterna round: R97, puzzle: Exclusion 4)”, the “apparent KD of MS2 coat protein” value is, setting by setting: (input ligand: FMN 200 uM) 44.1 nM; (input ligand: none) 1000 nM.

With “AUAAUGUCAGGAUAUCAGUCGACUAGCGAUAGCUAGUCGACUGAGAAGGGACAUGAGGAUCACCCAUGUGUUUC [E4/14-A4] (Eterna round: R97, puzzle: Exclusion 4)”, the “apparent KD of MS2 coat protein” value reads like this: (input ligand: FMN 200 uM) 2.73 nM; (input ligand: none) 170 nM.
